# Experimental data reported in patent publication US20260242478A1 (published 2026).
# Where no end group is shown, it is not given here.
# Tests used:
# [1] = molecular target: T1, Anti-PSMA Fab (SEQ ID NOs: 19, 20); experiment: phage binding ELISA on captured PSMA Fab, wells pre-incubated with PSMA antigen as competitor
# T1 construct: In the phage ELISA the Fab was biotinylated and captured on neutravidin coated plates; also called 006 PSMA Fab
# Description: (§1) Clonal phage were harvested as crude supernatants and screened via standard ELISAs. […] Prior to the addition of clonal phage. wells were incubated with blocking buffer and PSMA antigen or blocking buffer alone. Without washing or aspirating, clonal phage supernatants were then added to the wells and incubated for a short time. Wells were then washed followed by detection of bound phage using a horse radish conjugated anti-M13 antibody.
# [2] = molecular target: T1, Anti-PSMA Fab (SEQ ID NOs: 19, 20); experiment: phage binding ELISA; biotinylated PSMA Fab captured on neutravidin plate, bound phage detected with anti-M13-HRP
# Description: as §1
# [3] = molecular target: T2, Anti-PSMA Fab (SEQ ID NOs: 19, 20); experiment: phage ELISA; biotinylated PSMA Fab on neutravidin plate, bound phage detected with anti-M13 HRP
# T2 construct: Biotinylated Fab captured on neutravidin coated plates in the phage ELISA; also called 006 PSMA Fab
# Description: as §1
# [4] = molecular target: T2, Anti-PSMA Fab (SEQ ID NOs: 19, 20); experiment: phage ELISA; PSMA Fab on plate pre-incubated with PSMA antigen as competitor, anti-M13 HRP
# Description: as §1
# [5] = molecular target: T3, Anti-PSMA Fab (SEQ ID NOs: 19, 20); experiment: phage binding ELISA; biotinylated anti-PSMA Fab on neutravidin plate, PSMA antigen as competitor, anti-M13 HRP detection
# T3 construct: Biotinylated and captured on neutravidin coated plates in the phage ELISA; also called 006 PSMA Fab
# Description: as §1
# [6] = molecular target: T3, Anti-PSMA Fab (SEQ ID NOs: 19, 20); experiment: phage binding ELISA; biotinylated anti-PSMA Fab on neutravidin plate, clonal phage supernatant, anti-M13 HRP detection
# Description: as §1
binder,measurement,setting,value
"VEKWCIPQWMCAEM (cysteine pairing not given here; also: fused to phage pIII, pIII sequence and linker not given here, Clonal phage of the Peptide-180 library) [Phage-2088]",Anti-PSMA Fab signal in the presence of PSMA,[1],0.0696
same,"Anti-PSMA Fab (SEQ ID NOs: 19, 20) signal",[2],1.74
WDKWCIPEWMCVTQ (Clonal phage of the peptide-180 library) [Phage-2127],"Phage binding ELISA, Anti-PSMA Fab signal",[3],1.71
same,"Phage binding ELISA, Anti-PSMA Fab signal in the presence of PSMA",[4],0.1
VETWCTPRWMCEGF (Clonal phage of the Peptide-180 library) [Phage-2093],Anti-PSMA Fab signal in the presence of PSMA,[1],0.0881
same,"Anti-PSMA Fab (SEQ ID NOs: 19, 20) signal",[2],1.74
DGLLCRPLWMCQFL (Clonal phage of the peptide-180 library) [Phage-2128],"Phage binding ELISA, Anti-PSMA Fab signal",[3],1.71
same,"Phage binding ELISA, Anti-PSMA Fab signal in the presence of PSMA",[4],0.0771
PLPWCIPVWMCSMI (Clonal phage of the peptide-180 library) [Phage-2129],"Phage binding ELISA, Anti-PSMA Fab signal",[3],1.71
same,"Phage binding ELISA, Anti-PSMA Fab signal in the presence of PSMA",[4],0.161
LENWCKPAWMCRGS [Phage-2109],Anti-PSMA Fab signal in the presence of PSMA,[5],0.0678
same,"Anti-PSMA Fab (SEQ ID NOs: 19, 20) signal",[6],1.72
MERWCIPEWMCATT [Phage-2102],Anti-PSMA Fab signal in the presence of PSMA,[5],0.0637
same,"Anti-PSMA Fab (SEQ ID NOs: 19, 20) signal",[6],1.73
EMIWCRPAWMCEGI (Clonal phage of the peptide-180 library) [Phage-2118],"Phage binding ELISA, Anti-PSMA Fab signal",[3],1.72
same,"Phage binding ELISA, Anti-PSMA Fab signal in the presence of PSMA",[4],0.0702
WENWCTPSWMCSVL [Phage-2116],Anti-PSMA Fab signal in the presence of PSMA,[5],0.118
same,"Anti-PSMA Fab (SEQ ID NOs: 19, 20) signal",[6],1.72
SDKWCIPPWMCEVA (Clonal phage of the peptide-180 library) [Phage-2126],"Phage binding ELISA, Anti-PSMA Fab signal",[3],1.71
same,"Phage binding ELISA, Anti-PSMA Fab signal in the presence of PSMA",[4],0.0724
"VEKWCIPTWMCQAM (cysteine pairing not given here; also: fused to phage pIII, pIII sequence and linker not given here, Clonal phage of the Peptide-180 library) [Phage-2089]",Anti-PSMA Fab signal in the presence of PSMA,[1],0.0844
same,"Anti-PSMA Fab (SEQ ID NOs: 19, 20) signal",[2],1.74
ILKACIPDWMCEGS (Clonal phage of the peptide-180 library) [Phage-2124],"Phage binding ELISA, Anti-PSMA Fab signal",[3],1.71
same,"Phage binding ELISA, Anti-PSMA Fab signal in the presence of PSMA",[4],0.0604
SENWCIPSWMCQGF [Phage-2103],Anti-PSMA Fab signal in the presence of PSMA,[5],0.0813
same,"Anti-PSMA Fab (SEQ ID NOs: 19, 20) signal",[6],1.73
QGIMCIPEWMCSAI (Clonal phage of the Peptide-180 library) [Phage-2097],Anti-PSMA Fab signal in the presence of PSMA,[1],0.0664
same,"Anti-PSMA Fab (SEQ ID NOs: 19, 20) signal",[2],1.73
EIKWCVPQWMCENQ (Clonal phage of the peptide-180 library) [Phage-2117],"Phage binding ELISA, Anti-PSMA Fab signal",[3],1.72
same,"Phage binding ELISA, Anti-PSMA Fab signal in the presence of PSMA",[4],0.0643
FEKWCIPPWMCAVH [Phage-2110],Anti-PSMA Fab signal in the presence of PSMA,[5],0.138
same,"Anti-PSMA Fab (SEQ ID NOs: 19, 20) signal",[6],1.72
FEKWCIPAWMCAAV (Clonal phage of the Peptide-180 library) [Phage-2092],Anti-PSMA Fab signal in the presence of PSMA,[1],0.112
same,"Anti-PSMA Fab (SEQ ID NOs: 19, 20) signal",[2],1.74
"LGNWCIPEWMCYGM (cysteine pairing not given here; also: fused to phage pIII (clonal phage display), Clonal phage of the Peptide-180 library) [Phage-2099]",Anti-PSMA Fab signal in the presence of PSMA,[1],0.078
same,"Anti-PSMA Fab (SEQ ID NOs: 19, 20) signal",[2],1.73
VVHWCIPSWMCTEN (Clonal phage of the Peptide-180 library) [Phage-2094],Anti-PSMA Fab signal in the presence of PSMA,[1],0.0941
same,"Anti-PSMA Fab (SEQ ID NOs: 19, 20) signal",[2],1.74
VTAWCIPEWMCVGV (Clonal phage of the peptide-180 library) [Phage-2122],"Phage binding ELISA, Anti-PSMA Fab signal",[3],1.71
same,"Phage binding ELISA, Anti-PSMA Fab signal in the presence of PSMA",[4],0.0929
AEKWCIPPWMCEWV (Clonal phage of the peptide-180 library) [Phage-2121],"Phage binding ELISA, Anti-PSMA Fab signal",[3],1.71
same,"Phage binding ELISA, Anti-PSMA Fab signal in the presence of PSMA",[4],0.105
PDHWCIPSWMCMSQ (Clonal phage of the Peptide-180 library) [Phage-2096],Anti-PSMA Fab signal in the presence of PSMA,[1],0.0974
same,"Anti-PSMA Fab (SEQ ID NOs: 19, 20) signal",[2],1.74
EFKWCTPPWMCQWD (Clonal phage of the peptide-180 library) [Phage-2125],"Phage binding ELISA, Anti-PSMA Fab signal",[3],1.71
same,"Phage binding ELISA, Anti-PSMA Fab signal in the presence of PSMA",[4],0.101
"ETRWCVPEWMCYGI (cysteine pairing not given here; also: fused to phage pIII, pIII sequence and linker not given here, Clonal phage of the Peptide-180 library) [Phage-2091]",Anti-PSMA Fab signal in the presence of PSMA,[1],0.0943
same,"Anti-PSMA Fab (SEQ ID NOs: 19, 20) signal",[2],1.74
IPKLCKPSWMCLFY (Clonal phage of the Peptide-180 library) [Phage-2098],Anti-PSMA Fab signal in the presence of PSMA,[1],0.185
same,"Anti-PSMA Fab (SEQ ID NOs: 19, 20) signal",[2],1.73
SAMLCKPQWMCDGF [Phage-2108],Anti-PSMA Fab signal in the presence of PSMA,[5],0.0821
same,"Anti-PSMA Fab (SEQ ID NOs: 19, 20) signal",[6],1.72
EAKWCIPAWMCSGV (Clonal phage of the Peptide-180 library) [Phage-2101],Anti-PSMA Fab signal in the presence of PSMA,[1],0.0654
same,"Anti-PSMA Fab (SEQ ID NOs: 19, 20) signal",[2],1.73
GVNWCIPDWMCVGM [Phage-2104],Anti-PSMA Fab signal in the presence of PSMA,[5],0.0692
same,"Anti-PSMA Fab (SEQ ID NOs: 19, 20) signal",[6],1.73
EIHLCKPPWMCDWL (Clonal phage of the peptide-180 library) [Phage-2120],"Phage binding ELISA, Anti-PSMA Fab signal",[3],1.72
same,"Phage binding ELISA, Anti-PSMA Fab signal in the presence of PSMA",[4],0.109
VHNWCIPSWMCEGL [Phage-2107],Anti-PSMA Fab signal in the presence of PSMA,[5],0.0717
same,"Anti-PSMA Fab (SEQ ID NOs: 19, 20) signal",[6],1.73
"FEKWCIPSWMCSGP (cysteine pairing not given here; also: fused to phage pIII, pIII sequence and linker not given here, Clonal phage of the Peptide-180 library) [Phage-2087]",Anti-PSMA Fab signal in the presence of PSMA,[1],0.097
same,"Anti-PSMA Fab (SEQ ID NOs: 19, 20) signal",[2],1.75
VVKWCSPPWMCDFL [Phage-2111],Anti-PSMA Fab signal in the presence of PSMA,[5],0.0713
same,"Anti-PSMA Fab (SEQ ID NOs: 19, 20) signal",[6],1.72
QEKWCIPMWMCESL [Phage-2106],Anti-PSMA Fab signal in the presence of PSMA,[5],0.0796
same,"Anti-PSMA Fab (SEQ ID NOs: 19, 20) signal",[6],1.73
EWKWCTPSWMCEDA [Phage-2105],Anti-PSMA Fab signal in the presence of PSMA,[5],0.0652
same,"Anti-PSMA Fab (SEQ ID NOs: 19, 20) signal",[6],1.73
VDPLCRPAWMCFGM [Phage-2112],Anti-PSMA Fab signal in the presence of PSMA,[5],0.0801
same,"Anti-PSMA Fab (SEQ ID NOs: 19, 20) signal",[6],1.72
INMWCIPAWMCQNT (Clonal phage of the Peptide-180 library) [Phage-2100],Anti-PSMA Fab signal in the presence of PSMA,[1],0.128
same,"Anti-PSMA Fab (SEQ ID NOs: 19, 20) signal",[2],1.73
YAKWCIPEWMCAVS (Clonal phage of the peptide-180 library) [Phage-2119],"Phage binding ELISA, Anti-PSMA Fab signal",[3],1.72
same,"Phage binding ELISA, Anti-PSMA Fab signal in the presence of PSMA",[4],0.12
MNTWCKPAWMCEGL [Phage-2113],Anti-PSMA Fab signal in the presence of PSMA,[5],0.127
same,"Anti-PSMA Fab (SEQ ID NOs: 19, 20) signal",[6],1.72
GEIWCIPRWMCESF [Phage-2115],Anti-PSMA Fab signal in the presence of PSMA,[5],0.0672
same,"Anti-PSMA Fab (SEQ ID NOs: 19, 20) signal",[6],1.72
SERWCIPEWMCSMP [Phage-2114],Anti-PSMA Fab signal in the presence of PSMA,[5],0.0625
same,"Anti-PSMA Fab (SEQ ID NOs: 19, 20) signal",[6],1.72
"IVKWCVPEWMCEGT (cysteine pairing not given here; also: fused to phage pIII, pIII sequence and linker not given here, Clonal phage of the Peptide-180 library) [Phage-2090]",Anti-PSMA Fab signal in the presence of PSMA,[1],0.0687
same,"Anti-PSMA Fab (SEQ ID NOs: 19, 20) signal",[2],1.74
WGKLCIPEWMCTTQ (Clonal phage of the Peptide-180 library) [Phage-2095],Anti-PSMA Fab signal in the presence of PSMA,[1],0.0687
same,"Anti-PSMA Fab (SEQ ID NOs: 19, 20) signal",[2],1.74
EIKWCRPGWMCKVR (Clonal phage of the peptide-180 library) [Phage-2123],"Phage binding ELISA, Anti-PSMA Fab signal",[3],1.71
same,"Phage binding ELISA, Anti-PSMA Fab signal in the presence of PSMA",[4],0.0583
